Assay results taken from patent US20110212110A1 (INNATE PHARMA, published 2011).

What was measured:
[1] = molecular target: T1, recombinant human His-tagged TLR3 extracellular domain protein (R&D systems, #1487-TR-050) (human, UniProt O15455 24-704); assay: ELISA, His-tagged TLR3 or TLR4 on Ni-NTA plates, hybridoma supernatant, goat anti-mouse F(ab) IgG-HRP
T1 construct: Bought protein; also called recombinant human TLR3; rec TLR3; not shown: His tag
From the text: Immune spleen cells were fused with X63.Ag8.653 immortalized B cells, and cultured in the presence of irradiated spleen cells. 40 culture plates were obtained and evaluated in a first screen for TLR3 binding using an ELISA developed for detection of binding to TLR3. Briefly, His-tagged recombinant TLR3 protein (R&D systems, #1487-TR-050) was coated on Ni-NTA 96-wells plates (Qiagen). […] Positive supernatants were selected and tested for lack of binding to TLR4. Briefly, His-tagged rec TLR4 protein (R&D systems, #3146-TR-050) were coated on Ni-NTA 96-wells plates (Qiagen). […] TLR4 was chosen as a 2nd screen in order to discriminate among wells selected in the 1st screen, where anti-His specific antibody from TLR3 specific antibody were used.
Cloning of hybridomas of potential interest. 42 potentially interesting hybridomas selected from the initial screening were cloned by limiting dilution techniques in 96-wells plates, and 304 subclones were tested in a series of screens as follows. […] All supernatants yielding a ratio above 10 for DO obtained in TLR3 ELISA to DO obtained in TLR4 ELISA were selected as specific for TLR3. Among them was supernatant from well F9 of plate 40 (40F9).

[2] = molecular target: T2, human TLR4 expressed in 293T cells (293T-TLR4 transfectants) (human, UniProt O00206 24-839); assay: IHC on paraffin-embedded cell pellet, ENVISION amplification
T2 construct: also called Toll-Like Receptor 4
Method: 40F9.6 was tested on tonsil tissue with different detection systems, in order to identify the detection system yielding the strongest signal, with the lowest […]. The ENVISION System commercialized by DAKO A/S (Glostrup, Denmark) was selected. ENVISION is an amplification system based on an HRP-labeled polymer conjugated to secondary antibodies. Tissue sections were dewaxed and rehydrated before the antigen unmasking procedure in boiled citrate buffer (pH6). Endogenous peroxydases were blocked by a 3% solution of H₂O₂.
40F9.6 was tested in a series of paraffin-embedded samples.

ratio of DO obtained in TLR3 ELISA to DO obtained in TLR4 ELISA [1]: 10 | binding result [2]: no binding (tested: 10 µg/ml)
B1: monoclonal antibody 40F9 (clone 40F9.6) (antibody, mouse IgG1, V domains shown)
VH: QIQLVQSGPELKKPGETVKISCKASGYTFTNYGMNWVKQAPGKGLKWMGWINANTGEPTYAEEFKGRFAFSLETSDSTAYLQINNLKNEDTATYFCASDYDYWGQGTTLTVSS
VL: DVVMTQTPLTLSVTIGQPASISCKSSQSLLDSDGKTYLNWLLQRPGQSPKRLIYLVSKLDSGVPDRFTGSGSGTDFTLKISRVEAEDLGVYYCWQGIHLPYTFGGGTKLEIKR
notes: Mouse hybridoma antibody (Balb/c); also called supernatant from well F9 of plate 40
